# In the nanobody polyreactivity screen of Harvey et al. (2022):
# Experiment: yeast display, Sf9 membrane polyspecificity reagent, FACS + sequencing; frameworks hold sequencing errors
# Procedure, shortened: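 Polyreactivity labels are assigned by the sorting gate from which each nanobody was recovered. The gates were low and high (top ~1%), set on anti-HA fluorescence for expression and streptavidin fluorescence for reagent binding. Before sorting, galactose-induced (36–48 hours) yeast display cells were stained for 1 hour at 4 °C with 10% biotinylated, detergent-solubilized Sf9 membrane reagent.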
row,Sequence,polyreactivity (PSR sort gate)
1,QVQLVESGGGLVQAGGSLRLSCAASGIFGGYAMGWYIQAPRKERELVAAITSGGSTYYADSVKGRFTISRDNAKNTVYLQMNSLKPEDTAVYYCAARPRGTYSRLGYWGQGTQVTVSS,high polyreactivity
2,QVQLVESGGGLVQAGGSLRLSCAASGIFGSYAMGWYRQAPGKERELVAAISSGGSTYYADSVKGRFTISRDNAKNTVYLQMNSLKPEDTAVYYCAKRYGRAYRSYYWGQGTQVTVSS,high polyreactivity
3,QVQLVESGGGLVQAGGSLRLSCAASGIFLKYAKGWYRPAPGKERELVPAIRKRGGSTYYADSVKGRFTISRDNAKNTVYLQMNSLKPEDTAVYYCATRYTYHPGSAGFDYWGQGTQVTVSS,high polyreactivity
4,QVQLVESGGGLVQAGGSLRLSCAASGIFRRYAMGWYREAPGKERELVAAISSNGGSTYYADSVKGRFTISRDNAKNTVYLQMNSLKPEDTAVYYCNADVYVWNYKYYSWGQGTQVTVSS,high polyreactivity
5,QVQLVESGGGLVQAGGSLRLSCAASGIFRYYAMGWYRQAPGKERELVASITGGGSTYYADSVKGRFTISRDNAKMTVYLQLNSLKPEDTAVYYCNTAGAYYRWTPYYYWGQGTQVTVSS,high polyreactivity
6,QVQLVESGGGLVQAGGSLRLSCAASGIFRYYAMGWYRQAPGKERELVATITRSSGSTYYADSVKGRFTISRDNAKNTVYLQMNSLKPEDTAVYYCAARGPYFNRGTRYDYWGQGTQVTVSS,high polyreactivity
7,QVQLVESGGGLVQAGGSLRLSCAASGIFVSYAMGWYRQAPGKDRAVVAAISSSGGSTYYADSVKGRFTISRDNAKNTVYLQMNSLKPEDTAVYYGAARLVKSQTTVQGYYWGQGTQVTVSS,high polyreactivity
8,QVQLVESGGGLVQAGGSLRLSCAASGIICVKYTMGWYRQAPGKERELVAAISRSGGSTYYADSVKGRFTISRDNAKNTVYLQMNSLKPEDTAVYYCNAVSRKVYPGPMDYWGHGTQVTVSS,high polyreactivity
9,QVQLVESGGGLVQAGGSLRLSCAASGIICYENTMGWYRQAPGKERELVAAINSGGSTYYADSVKGRFTISRDNAKNTVYLQMNSLKPEDTAVYYCAADDYSGLYYSSTYRYEYWGQGTQVTVSS,low polyreactivity
10,QVQLVESGGGLVQAGGSLRLSCAASGIIFAANAMAWYRQAPGKERELVAAISKNGGITYYADSVKGRFTISRDNAKNTVYLQMNSLIPEDTAVYDCSARWRQTRRYYYWGQGTKVTVSS,high polyreactivity
11,QVQLVESGGGLVQAGGSLRLSCAASGIIFADYAMGWSRQAPGKERELVAAISSGDSTYYADSVKGRFTMSLDNAKNTVYLQMNSLKPEDTAVYYSAARLFRNKYRIAKMNYWGQGTQVTVSS,high polyreactivity
12,QVQLVESGGGLVQAGGSLRLSCAASGIIFAIYAMGWYRQAPGKESELVAAITWRGGSTYYADSVKGRFTISRDNAKNTVYLQRNSLKPEDTAVYYCDAVTKSLYGYDYWGQGSQVTVSS,low polyreactivity
13,QVQLVESGGGLVQAGGSLRLSCAASGIIFAKYAMGWYRQAPGKERELVAGISRSGGRTYYADSVKGRFTISRDNAKNTVYLQMNSLKPEDTAVYYCAAVPHGTGGWWKYDYWGQGTQVTVSS,high polyreactivity
14,QVQLVESGGGLVQAGGSLRLSCAASGIIFANNDMGWSRQAPGKERELVAVITFSDGSTYYADSVKGRFTISRDNAKNTVYLQMNSLKPEDTAVYYCATRIRSYYYWGQGTQVTVSS,high polyreactivity
15,QVQLVESGGGLVQAGGSLRLSCAASGIIFAQYVMGWYRQAPGKERQLVAAIRTSGGRTYYADSVKGRFTISRDHAKITVYLQMISLKPVDTAVYYCAAYGKPTFRSVDYWGQGTQVTVSS,high polyreactivity
16,QVQLVESGGGLVQAGGSLRLSCAASGIIFASNAMGWYRQAPGKERELVAAISRSGGRTYYADSVKGRFTISRDNAKNTVYLQMNSLKPEDTAVYYCNAVQFGATAYDYWGQGTQVTVSS,high polyreactivity
17,QVQLVESGGGLVQAGGSLRLSCAASGIIFASYALGWYRQAPGKERELVAAISGGGSTYYADSVKGRFTISRDNAKNTVYLQMNSLKPEDTAVYYCNADVTLRLWAYYYYRYNYWGQGTQVTVSS,low polyreactivity
18,QVQLVESGGGLVQAGGSLRLSCAASGIIFAWYVKGWYRQAPGKERELVAAITQSGGSTFYADSVKWRFTISRDNAKNTVYLQMNSLKPEDTAVYYCNREYWGRGYYRVRGEYDYWGQGTQVTVSS,low polyreactivity
19,QVQLVESGGGLVQAGGSLRLSCAASGIIFAYYAMGWYRQAPGKERELVAAISWSGTSTYYADSVKGRFTISRDTATNTVYLQMNSLKPEDTAVYYCNAYGLYSDMDYWGQGTQVTVSS,high polyreactivity
20,QVQLVESGGGLVQAGGSLRLSCAASGIIFAYYAMGWYRQAPGKERELVAAMNRSGGTTYYADSVKGRFTISRDNAKNTLYLQMNSLKPEDTAVYYCNALTTWRYRYDYWGQGTQVTVSS,high polyreactivity
21,QVQLVESGGGLVQAGGSLRLSCAASGIIFAYYAMGWYRQAPGKERELVATITSGSNTNYADSVKGRFTISRDNAQNTVYLQMNSLKPEDTAVYYWGQGTQVTVSS,low polyreactivity
22,QVQLVESGGGLVQAGGSLRLSCAASGIIFAYYAMGWYRQAPGKERELVGTNYADSVKGRFTISRDNAKNTVYLQMNSLKPEDTAVYYCNTEWTSLSKSSLGGRYDHWGQGTQVTVSS,low polyreactivity

row,Sequence,polyreactivity (PSR sort gate)
1,QVQLVESGGGLVQAGGSLRLSCAASGIIFDDYAMGWYRQAPGKERELVAAISRGGSTYYADSVKGRFTISRDNAKNTVYIQMNSLKPEDTAVYYCAAVVYTIYARYGYCGQGTQVTVSS,high polyreactivity
2,QVQLVESGGGLVQAGGSLRLSCAASGIIFDDYAMGWYRQAPGKERELVAVISSSGGNTYYADSVKGRFTISRDNAKNSVYLQMNSLKPEDTAVYYCAATYYYKSIYWFEYLGQGTQVTVSS,low polyreactivity
3,QVQLVESGGGLVQAGGSLRLSCAASGIIFDGNVMGWYRQAPGKEREFVASISISGGSTSYADSVKGRFTISRDNAKNTVYLQMNSLKPEDTAVYYCNTDVGYGRVWRWRYHGDYWGQGTQVTVSS,low polyreactivity
4,QVQLVESGGGLVQAGGSLRLSCAASGIIFDGYTMGWYRQAPGTERELVAAITTSGTSTYYADSVKGRFTISRDNAKNTVYLQMNSLKPEDTAVYYCNAVRRGLPVVGAYDYWGQGTQVTVSS,high polyreactivity
5,QVQLVESGGGLVQAGGSLRLSCAASGIIFDSYAMGWYRQAPGKERELVAAITSDSGRTYYADSVKGRFTISRDNAKKTVYLQMNSLKPEYTAVYYFAKRWDGPYDYWGQGTQVTVSS,low polyreactivity
6,QVQLVESGGGLVQAGGSLRLSCAASGIIFDSYVMGWYRQAPGKERELVAAISFRGGSTYYADSVKGRFTISRDNAKNTVYLQMNSLKPEDTAVYYCAAEGRGYTEYYWGQGTQVTVSS,high polyreactivity
7,QVQLVESGGGLVQAGGSLRLSCAASGIIFDVYAMGWYRPAPGKERELVAAISYGGGTTYYADSVKGRFTISRDNAKNTVYLQMNSLKPEDTAVYYCAADSYRSIGDDYWGQGTQVTVSS,high polyreactivity
8,QVQLVESGGGLVQAGGSLRLSCAASGIIFDVYAMGWYRQAPGKEREFVAAITTGGSTNYADSVKGRFTISRDNAKNSVYLQMNSLTPEDTAVYYCNADWDVGYGYWGQGTQVTVSS,low polyreactivity
9,QVQLVESGGGLVQAGGSLRLSCAASGIIFDVYAMGWYRQAPGKERELVAAISKRGGRTYYADSVKGRFTISRDNAKNTVYLQMNSLKPEDTAVYYCAADGQYKHFDYWGQGTQVTVSS,high polyreactivity
10,QVQLVESGGGLVQAGGSLRLSCAASGIIFDYYAMGWYRQAPGKERELVAGISQRGGSTYYADSVKGRFTISRDNAKITVYLQMNSLKPEDTAVYYWAAYTRSCEGHRGGYWGQGTQVTVSS,high polyreactivity
11,QVQLVESGGGLVQAGGSLRLSCAASGIIFDYYAMGWYRQAPGKVREFVATITSGGSTTYADSVKGRFTISRDNAKNTVYIEMNSLKPEDTAVYYCAARTYWFPDIYPGLGRDYWGQGTQVTVSS,low polyreactivity
12,QVQLVESGGGLVQAGGSLRLSCAASGIIFEGNAMGWYRQAPGKERELVAAISTSTGRTYYADSVKGRFTISRDNAKNTVYLQMNSLKPEDTAVYYCAAYIRTTRFDYWGQGTQVTVSS,high polyreactivity
13,QVQLVESGGGLVQAGGSLRLSCAASGIIFEGNVMGWYRHAPAKERELVAAITSDTSTNYADSVKGRFTISRDNAKNTVYLQMNSLKPVDTAVYYFNAVICTDYYYSGTAEFYYWGQGTQVTVSS,low polyreactivity
14,QVQLVESGGGLVQAGGSLRLSCAASGIIFERYAMGWYRQAPGKERELVAAISKGGGSRTYYADSVQGRFTISRDTAKNTVYLQMNSLKPEDTAVYYCNADIWYGDMDYWGQGTQVTVSS,high polyreactivity
15,QVQLVESGGGLVQAGGSLRLSCAASGIIFEYYTIGWYRQATGKERELVASITYDGDSTYYADSVKGRFTISRDNAKNTVYLQMNSLKPEDTAVYYCAADYYSVYSSFGHYYWGQGTQVTVSS,low polyreactivity
16,QVQLVESGGGLVQAGGSLRLSCAASGIIFFIYAMGWYRQAPGKERELVARISIGGSTYYADSVKGRFTISRDNAKNTVYLQMNSLKPEDTAVYYCAARCGGLRATYHYWGQGTQVTVSS,low polyreactivity
17,QVQLVESGGGLVQAGGSLRLSCAASGIIFFKYAMGWYRQAPGKERELVARISWSGSTYADSVKGRFTISRDNAKNTVYLQMNSLKPEDTAVYYCAADSFTITADSDDYWGQGTQVTVSS,low polyreactivity
18,QVQLVESGGGLVQAGGSLRLSCAASGIIFFPYAMVWYRQAPGKEREFVAAITSRGGSTYYADSVKGRFTISRDNAKNTVYLQMNSLNPEDTAVYYFAADGWLWSFTGDGWWFDYWGQGTQVTVSS,low polyreactivity
19,QVQLVESGGGLVQAGGSLRLSCAASGIIFGDNAMGWYRQAPGKERELVAAIDSGGSTYYADSVKGRFTISRDNAKNTVYLQMNSLKPEDTAVYYCNAVTAFGYSYGGWDYDQYNYWGQGTQVTVSS,low polyreactivity
20,QVQLVESGGGLVQAGGSLRLSCAASGIIFGDNAMGWYRQAPGKERELVAAISSGGITYYADSVKGRFTISRDNAKNTVYLQMNSLKPEDTAVYYCAAGYYDFWYDYWGQGTQVTVSS,low polyreactivity
21,QVQLVESGGGLVQAGGSLRLSCAASGIIFGDNAMGWYRQATGKERELVAAIDYGDGSTYYADSVKGRFTISRDNENNTVYLQMNRLKPEDTAVYYCNADDGGPGVVLPTKEYDYWGQGTQVTVSS,low polyreactivity
